B1: library; numbered along this chain (parent)
chain: MATDAALRRLLRLHRTEIAVAVDSAFPLLHALADHDVVPEDKFQETLHLKEKEGCPQAFHALLSWLLTQDSTAILDFWRVLFKDYNLERYGRLQPILDSFPKDVDLSQPRKGRKPPAVPKALVPPPRLPTKRKASEEARAAAPAALTPRGTASPGSQLKAKPPKKPESSAEQQRLPLGNGIQTMSASVQRAVAMSSGDVPGARGAVEGILIQQVFESGGSKKCIQVGGEFYTPSKFEDSGSGKNKARSSSGPKPLVRAKGAQGAAPGGGEARLGQQGSVPAPLALPSDPQLHQKNEDECAVCRDGGELICCDGCPRAFHLACLSPPLREIPSGTWRCSSCLQATVQEVQPRAEEPRPQEPPVETPLPPGLRSAGEEVRGPPGEPLAGMDTTLVYKHLPAPPSAAPLPGLDSSALHPLLCVGPEGQQNLAPGARCGVCGDGTDVLRCTHCAAAFHWRCHFPAGTSRPGTGLRCRSCSGDVTPAPVEGVLAPSPARLAPGPAKDDTASHEPALHRDDLESLLSEHTFDGILQWAIQSMARPAAPFPS

Variants of: B1
Test: AIRE transcriptional activation functional score (insulin promoter-GFP; nonsense median 0, synonymous median 1) (normalised score); higher = higher AIRE activity (more reporter activation)
Details: with insulin promoter-GFP reporter in HEK293
Method in brief: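 The functional score compares variant enrichment between select and non-select populations after subtracting wild type. To obtain it, codon-optimized AIRE NNN-codon libraries spanning three regions were placed by Bxb1 recombinase into Flp-In T-REx HEK293 landing-pad cells with an insulin core promoter-GFP reporter. Cells with the top 10% GFP and unselected integrants were tile-sequenced after mCherry+, BFP− integrants had been sorted at day 7 and grown 7 more days. Only variants with 10 counts per million in non-select were kept, rescaled to nonsense median 0 and synonymous median 1, and averaged across biological replicates.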

AIRE transcriptional activation functional score: each site, then its substitutions
P355: Y 1.49; R 1.04; T 1.09; D 1.13; H 1.08; M 0.914; F 1; L 1.11; Q 1.24; S 0.93; W 1.32; G 1.06; N 1.11; V 1; E 0.969; I 1.01; K 1.2; C 1.05; A 0.981
R351: D 0.673; W 0.833; N 1.56; M 1.07; T 0.615; H 0.73; C 1.19; K 0.457; Y 0.693; E 0.835; S 1.01; F 1.16; V 0.812; I 0.573; A 1.34; L 0.985; P 1.02; G 1.02; Q 1.44
A352: V 0.882; F 1.38; K 0.997; T 1.32; D 1.08; E 0.933; M 1.13; H 0.902; S 1; G 0.813; W 1.31; P 0.925; Y 0.899; R 0.916; L 1.06; I 1.08; N 1.01; Q 0.697; C 1.1
V348: G 1.04; H 1.33; F 1; W 1.37; R 1.19; N 1.08; C 0.781; L 1.09; Y 0.929; Q 0.65; I 1.08; M 0.509; A 1.1; P 0.929; K 0.974; E 0.956; S 0.865; D 1.01; T 1.04
R356: L 0.928; D 1.05; H 0.935; V 0.975; C 1.05; G 1.06; E 1.09; P 0.873; M 1.16; F 1.15; K 0.935; W 0.964; I 1.03; S 0.974; Q 0.912; A 0.824; N 1.01; T 0.752; Y 1.03
E354: A 0.949; V 1.08; M 1.47; K 0.669; F 1.33; N 0.818; G 1.13; T 0.99; H 1.1; D 1.22; P 0.835; L 1.05; R 1.14; C 1.16; W 1.16; I 1.13; Y 1.38; Q 0.948; S 0.901
Q342: Y 1.06; F 1.08; P 0.83; V 0.754; A 0.362; M 1.09; N 0.925; S 1.13; C 1.09; E 0.971; W 1.73; I 1; T 0.546; G 0.963; D 0.916; R 0.876; H 0.916; K 1.04; L 0.929
Q346: M 1.29; C 0.884; Y 0.906; A 0.913; K 0.899; E 1.18; D 1.46; H 1.3; V 0.378; G 1.13; R 1.03; P 1.12; F 0.819; L 1.2; T 1.02; W 1.73; N 0.737; I 1.01; S 1.06
T344: S 1.06; L 0.939; H 1.29; W 1.1; I 0.748; E 0.714; N 0.983; V 0.896; A 0.851; K 1.16; G 1.16; C 1.26; Y 0.912; D 0.882; P 1.07

From the supplement of paper PMC12667976
